These results are taken from PMC3635657 (Biochemical Journal, 2013).

B2: TorD^His (hexahistidine-tagged TorD) (natural protein, E. coli, UniProt P36662 1-199, looked up)
chain: MTTLTAQQIACVYAWLAQLFSRELDDEQLTQIASAQMAEWFSLLKSEPPLTAAVNELENRIATLTVRDDARLELAADFCGLFLMTDKQAALPYASAYKQDEQEIKRLLVEAGMETSGNFNEPADHLAIYLELLSHLHFSLGEGTVPARRIDSLRQKTLTALWQWLPEFVARCRQYDSFGFYAALSQLLLVLVECDHQNR
B3: TorAΔSP (TorA Δ2–39, lacking its entire Tat signal peptide) (domain or fragment, E. coli, UniProt P33225 40-848, looked up)
chain: AQAATDAVISKEGILTGSHWGAIRATVKDGRFVAAKPFELDKYPSKMIAGLPDHVHNAARIRYPMVRVDWLRKRHLSDTSQRGDNRFVRVSWDEALDMFYEELERVQKTHGPSALLTASGWQSTGMFHNASGMLAKAIALHGNSVGTGGDYSTGAAQVILPRVVGSMEVYEQQTSWPLVLQNSKTIVLWGSDLLKNQQANWWCPDHDVYEYYAQLKAKVAAGEIEVISIDPVVTSTHEYLGREHVKHIAVNPQTDVPLQLALAHTLYSENLYDKNFLANYCVGFEQFLPYLLGEKDGQPKDAAWAEKLTGIDAETIRGLARQMAANRTQIIAGWCVQRMQHGEQWAWMIVVLAAMLGQIGLPGGGFGFGWHYNGAGTPGRKGVILSGFSGSTSIPPVHDNSDYKGYSSTIPIARFIDAILEPGKVINWNGKSVKLPPLKMCIFAGTNPFHRHQQINRIIEGLRKLETVIAIDNQWTSTCRFADIVLPATTQFERNDLDQYGNHSNRGIIAMKQVVPPQFEARNDFDIFRELCRRFNREEAFTEGLDEMGWLKRIWQEGVQQGKGRGVHLPAFDDFWNNKEYVEFDHPQMFVRHQAFREDPDLEPLGTPSGLIEIYSKTIADMNYDDCQGHPMWFEKIERSHGGPGSQKYPLHLQSVHPDFRLHSQLCESETLRQQYTVAGKEPVFINPQDASARGIRNGDVVRVFNARGQVLAGAVVSDRYAPGVARIHEGAWYDPDKGGEPGALCKYGNPNVLTIDIGTSQLAQATSAHTTLVEIEKYNGTVEQVTAFNGPVEMVAQCEYVPASQVKS

The target of assay [1] is TorA signal peptide signal peptide (Escherichia coli) (UniProt P33225). The settings on record: cited from earlier work.
The target in assay [2] is TorD^His (hexahistidine-tagged TorD) (E. coli) (UniProt P36662). The experiment in a line: SEC-MALS.
The target of assay [3] is B2. The experiment in a line: SEC-MALS. (In general: Size exclusion chromatography separates by hydrodynamic size, large species first.)
The target in assay [4] is B3. The assay can be described thus: pull-down.

As a reminder, the Kd is the free concentration of one partner at which half of the binding sites on the other are occupied at equilibrium, for simple one-to-one binding. In the case of TorD (from UniProt P36662), the Kd in assay [1] was 59 nM.
Broadly, the stoichiometry N is the number of molecules, sites or subunits per partner or assembly. “TorA, full-length precursor (trimethylamine N-oxide reductase), cofactor-free (from UniProt P33225 40-848) (natural protein)”: the stoichiometry N in assay [2] turned out to be 1.

B1: TorAΔCT (TorA Δ676–848, lacking its entire C-terminal Domain IV) (domain or fragment, E. coli, UniProt P33225 1-675, looked up)
chain: MNNNDLFQASRRRFLAQLGGLTVAGMLGPSLLTPRRATAAQAATDAVISKEGILTGSHWGAIRATVKDGRFVAAKPFELDKYPSKMIAGLPDHVHNAARIRYPMVRVDWLRKRHLSDTSQRGDNRFVRVSWDEALDMFYEELERVQKTHGPSALLTASGWQSTGMFHNASGMLAKAIALHGNSVGTGGDYSTGAAQVILPRVVGSMEVYEQQTSWPLVLQNSKTIVLWGSDLLKNQQANWWCPDHDVYEYYAQLKAKVAAGEIEVISIDPVVTSTHEYLGREHVKHIAVNPQTDVPLQLALAHTLYSENLYDKNFLANYCVGFEQFLPYLLGEKDGQPKDAAWAEKLTGIDAETIRGLARQMAANRTQIIAGWCVQRMQHGEQWAWMIVVLAAMLGQIGLPGGGFGFGWHYNGAGTPGRKGVILSGFSGSTSIPPVHDNSDYKGYSSTIPIARFIDAILEPGKVINWNGKSVKLPPLKMCIFAGTNPFHRHQQINRIIEGLRKLETVIAIDNQWTSTCRFADIVLPATTQFERNDLDQYGNHSNRGIIAMKQVVPPQFEARNDFDIFRELCRRFNREEAFTEGLDEMGWLKRIWQEGVQQGKGRGVHLPAFDDFWNNKEYVEFDHPQMFVRHQAFREDPDLEPLGTPSGLIEIYSKTIADMNYDDCQGHPMWFEK
For B1, the “stoichiometry N” value in assay [3] is 1.
Regarding B2, the binding result in assay [4] is reported as “binds”.
As for B3, the “stoichiometry N” value in assay [3] stood at 1.
